{"source": "paper PMC6509358", "about": "“A Secreted RNA Binding Protein Forms RNA-Stabilizing Granules in the Honeybee Royal Jelly”", "key": {"[1]": {"biological_target": "major royal jelly protein 3 (MRJP-3) (Apis mellifera) (UniProt Q17060)", "assay": "MST; increasing unlabelled MRJP-3 added to fluorescently labelled MRJP-3 monomer; Monolith NT.115, 25 °C, RJ buffer with 0.01% Tween 20; apparent Kd of self-association; signal stable from approximately 40 uM added MRJP-3"}, "[2]": {"biological_target": "major royal jelly protein 3 (MRJP-3) (Apis mellifera) (UniProt Q17060)", "assay": "SEC; MRJP-3 concentrated to 100 uM, 16/100 Superdex 200, eluted at 0.5 ml/min in RJ buffer (pH 4.0), no RNA; column calibrated with mass standards; monomer to higher-order oligomer"}, "[3]": {"biological_target": "T1, MRJP-3 (jelly-purified) (Apis mellifera, UniProt Q17060 21-544)", "T1 sequence": "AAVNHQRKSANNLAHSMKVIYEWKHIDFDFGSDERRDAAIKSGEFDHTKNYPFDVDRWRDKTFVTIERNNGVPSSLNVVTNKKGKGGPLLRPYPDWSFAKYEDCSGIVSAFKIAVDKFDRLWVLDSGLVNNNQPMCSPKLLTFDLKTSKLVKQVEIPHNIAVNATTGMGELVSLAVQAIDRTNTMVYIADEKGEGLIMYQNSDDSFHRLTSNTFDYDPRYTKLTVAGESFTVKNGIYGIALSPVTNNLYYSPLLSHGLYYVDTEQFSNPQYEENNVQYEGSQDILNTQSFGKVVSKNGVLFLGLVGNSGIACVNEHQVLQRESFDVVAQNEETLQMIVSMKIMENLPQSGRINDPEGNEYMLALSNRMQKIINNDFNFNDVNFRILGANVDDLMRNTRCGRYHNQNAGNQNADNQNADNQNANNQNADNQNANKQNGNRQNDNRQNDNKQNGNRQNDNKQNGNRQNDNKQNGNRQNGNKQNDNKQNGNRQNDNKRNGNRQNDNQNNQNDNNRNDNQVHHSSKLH", "assay": "EMSA; 42.8 uM protein; MST: RJ buffer (composition not in material) + 0.01% Tween 20, 25 C; EMSA: room temperature 0.5-3 h, 0.8% agarose, 1xTAE", "settings": "protein: native"}, "[4]": {"biological_target": "T1, MRJP-3 (jelly-purified)", "assay": "MST; second of three binding phases; MST: RJ buffer (composition not in material) + 0.01% Tween 20, 25 C; EMSA: room temperature 0.5-3 h, 0.8% agarose, 1xTAE", "settings": "protein: native; label: Alexa Fluor 488 (Ulysis) for MST"}, "[5]": {"biological_target": "T1, MRJP-3 (jelly-purified)", "assay": "MST; first of three binding phases; MST: RJ buffer (composition not in material) + 0.01% Tween 20, 25 C; EMSA: room temperature 0.5-3 h, 0.8% agarose, 1xTAE", "settings": "protein: native; label: Alexa Fluor 488 (Ulysis) for MST"}, "[6]": {"biological_target": "T1, MRJP-3 (jelly-purified)", "assay": "MST; third of three binding phases; MST: RJ buffer (composition not in material) + 0.01% Tween 20, 25 C; EMSA: room temperature 0.5-3 h, 0.8% agarose, 1xTAE", "settings": "protein: native; label: Alexa Fluor 488 (Ulysis) for MST"}, "[7]": {"biological_target": "T1, MRJP-3 (jelly-purified)", "assay": "EMSA; 42.8 uM protein, 0.27 uM RNA; MST: RJ buffer (composition not in material) + 0.01% Tween 20, 25 C; EMSA: room temperature 0.5-3 h, 0.8% agarose, 1xTAE", "settings": "protein: native"}}}
{"molecule": "major royal jelly protein 3 (MRJP-3) (from UniProt Q17060 21-544) (natural protein)", "values": [{"measurement": "Kd", "setting": "[1]", "value": 3.5, "unit": "µM"}, {"measurement": "stoichiometry N (monomer units)", "setting": "[2]", "value": 20}]}
{"molecule": "UGUGUUUAUAGCGGAUUU (ssRNA)", "note": "[18 nt ssRNA]", "values": [{"measurement": "binding result", "setting": "[3]", "value": "binds"}]}
{"molecule": "UCAUAUGGGCUCACUGUUACUA (ssRNA)", "note": "[22 nt ssRNA]", "values": [{"measurement": "Kd", "setting": "[4]", "value": 0.3, "unit": "µM"}, {"measurement": "Kd", "setting": "[5]", "value": 0.004, "unit": "µM"}, {"measurement": "Kd", "setting": "[6]", "value": 25, "unit": "µM"}]}
{"molecule": "ACGCUUCUAACUUCAAGAUUUUACACAAUCAUAUGGGCUCACUGUUACUA (ssRNA)", "note": "[50 nt ssRNA]", "values": [{"measurement": "binding result", "setting": "[7]", "value": "binds"}]}
